The source of these data is PMC4504036.

Assay [1] has as its target Recombinant wild-type phospholipid transfer protein (rPLTP) (human) (UniProt P55058). Briefly: SPR; BIAcore 3000; rPLTP with C-terminal His-tag captured on anti-His tag monoclonal antibody immobilised on a CM5 chip; factor XII (0-750 nM) or factor XI injected; 50 mM Hepes, 150 mM NaCl, 5 mM CaCl2, pH 7.4; global fit, simple Langmuir model; apparent Kd. For orientation: In SPR one partner is held on a chip, and binding of the other changes the refractive index at the surface.

Assay [2] concerns the target Human factor XII (human).
Assay [3] deals with Human factor XII (human). This is another data set of the same source.

Turning to Human factor XII (natural protein), in assay [1], the Kd came to 190 nM, the off-rate constant (koff) came to 0.006 s⁻¹ and the on-rate constant (kon) is 31000 M⁻¹ s⁻¹.
As to “Recombinant wild-type phospholipid transfer protein (rPLTP) (from UniProt P55058 18-493) (natural protein)”, in the assay with Human factor XII (human) [2], the inhibition by rPLTP of sulfatide-stimulated factor XII autoactivation in a purified system in the presence of VLDL (factor XIIa amidolytic activity, S2302, at 15 min) came out at 1.2 µg/mL. Besides, the inhibition by rPLTP of sulfatide-induced kallikrein generation (contact activation) in plasma (S2302 amidolytic activity at 6 min) with Human factor XII (human) [3] turned out to be 0.69 µg/mL.

For orientation: koff means the rate constant with which the complex falls apart. What is called kon is a measure of how fast the partners come together.
